Measurements reported in patent US20030148958A1 (PROCTER AND GAMBLE, published 2003).
Ends that are not written are not given here.

T1: CRF2R
T1 sequence (Q13324 whole entry, species assumed, looked up): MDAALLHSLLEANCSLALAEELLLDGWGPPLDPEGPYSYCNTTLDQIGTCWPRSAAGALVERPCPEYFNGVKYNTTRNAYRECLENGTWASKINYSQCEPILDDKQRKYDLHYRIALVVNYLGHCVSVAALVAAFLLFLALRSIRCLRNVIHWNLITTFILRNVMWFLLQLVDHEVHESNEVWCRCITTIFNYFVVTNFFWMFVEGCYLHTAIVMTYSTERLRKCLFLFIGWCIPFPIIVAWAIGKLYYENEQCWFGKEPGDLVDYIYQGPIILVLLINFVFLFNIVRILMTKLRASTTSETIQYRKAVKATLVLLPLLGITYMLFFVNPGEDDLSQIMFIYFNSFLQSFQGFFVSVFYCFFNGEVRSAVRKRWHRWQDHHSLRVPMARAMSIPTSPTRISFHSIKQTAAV


Molecular target: CRF1R
Test: cell-based or functional assay
Wherever CRF1R Emax % is given: reference of the scale not given here.
Wherever CRF2R Emax % is given: reference of the scale not given here.

Row | CRF1R EC50 [nM] | CRF1R Emax % [%] | Binder
1 | 1000 | 78.2 | DNPSLSIDVPFFLLRTLLELEKTQSQRERAEQNARIFARV-NH2 [SEQ ID NO 386]
2 | 753 | 88 | ZGPPISIDLPLHLLRKMIEIEKQEKEKQQATTNARLLDTV (C-terminal amide) [SEQ ID NO 238]
3 | 440 | 96 | ZGPPISIDLPLYLLRKMIEIEKQEKEKQQATTNARLLDRV (C-terminal amide) [SEQ ID NO 243]
4 | 587 | 80 | ZGPPISIDLPLHLLRKMIEIEKQEKEKQQATTNARLLDRV (C-terminal amide) [SEQ ID NO 239]
5 | 358 | 99 | ZGPPISIDLPLYLLRKMIEIEKQEKEKQQATTNARLLDTV (C-terminal amide) [SEQ ID NO 242]
6 | 1000 | 70.3 | DNPSLSIDVPLLLLRTLLELEKTQSQRERAEQNARIFARV-NH2 [SEQ ID NO 384]
7 | 1000 | 76 | ZGPPISIDLPQWLLRKMIEIEKQEKEKQQAANNRLLLDTI (C-terminal amide) [SEQ ID NO 213]
8 | 80.9 | 100 | ZGPPISIDLPHFLLRKMIEIEKQEKEKQQAANNRLLLDTI (C-terminal amide) [SEQ ID NO 219]
9 | 918 | 18 | ZGPPISIDLPQYLLRKMIEIEKQEKEKQQAANNALLLATI (C-terminal amide) [SEQ ID NO 227]
10 | 236 | 100 | ZGPPISIDLPQFLLRKMIEIEKQEKEKQQAANNRLLLDTI (C-terminal amide) [SEQ ID NO 221]
11 | 188 | 100 | ZGPPISIDLPYWLLRKMIEIEKQEKEKQQAANNRLLLDTI (C-terminal amide) [SEQ ID NO 215]
12 | 384 | 95 | ZGPPISIDLPAFLLRKMIEIEKQEKEKQQAANNRLLLDTI (C-terminal amide) [SEQ ID NO 222]
13 | 49.8 | 98 | ZGPPISIDLPWWLLRKMIEIEKQEKEKQQAANNRLLLDTI (C-terminal amide) [SEQ ID NO 216]
14 | 308 | 99 | ZGPPISIDLPLHLLRKMIEIEKQEKEKQQAANNALLLATI (C-terminal amide) [SEQ ID NO 241]
15 | 434 | 96 | ZGPPISIDLPLELLRKMIEIEKQEKEKQQAANNALLLATI (C-terminal amide) [SEQ ID NO 234]
16 | 220 | 97 | ZGPPISIDLPYYLLRKMIEIEKQEKEKQQAANNALLLATI (C-terminal amide) [SEQ ID NO 225]
17 | 1000 | 18 | ZGPPISIDLPIYLLRKMIEIEKQEKEKQQAANNALLLATI (C-terminal amide) [SEQ ID NO 237]
18 | 63.6 | 81 | ZGPPISIDLPYFLLRKMIEIEKQEKEKQQAANNRLLLDTI (C-terminal amide) [SEQ ID NO 220]
19 | 98.4 | 100 | ZGPPISIDLPLWLLRKMIEIEKQEKEKQQAANNRLLLDTI (C-terminal amide) [SEQ ID NO 218]

Row | CRF1R EC50 [nM] | CRF1R Emax % [%] | Binder
20 | 1000 | 11 | ZGPPISIDLPTYLLRKMIEIEKQEKEKQQAANNALLLATI (C-terminal amide) [SEQ ID NO 233]
21 | 1000 | 50.1 | DNPSLSIDVPLYLLRTLLELEKTQSQRERAEQNARIFARV-NH2 [SEQ ID NO 387]
22 | 1000 | 46 | DNPSLSIDVPLFLLRTLLELEKTQSQRERAEQNARIFARV-NH2 [SEQ ID NO 385]
23 | 100 | 4 | IVLSLDVVIGLLQILLEQARARAAREQATTNARILARV-NH2 [SEQ ID NO 214]
24 | 1000 | 8 | ZGPPISIDVPFQLLRKVIEIEKQEKEKQQAANNARLLDTI (C-terminal amide) [SEQ ID NO 382]
25 | 1000 | 7 | ZGPPISIDLPTYLLRKMIEIEKQEKEKQQAANNALLLDTI (C-terminal amide) [SEQ ID NO 232]
26 | 1000 | 55 | ZGPPISIDVPFQLLRKVIEIEKQEKEKQQAANNARLLARI (C-terminal amide) [SEQ ID NO 383]
27 | 94.7 | 100 | ZGPPISIDLPFWLLRKMIEIEKQEKEKQQAANNRLLLDTI (C-terminal amide) [SEQ ID NO 217]
28 | 915 | 80 | ZGPPISIDLPLHLLRKMIEIEKQEKEKQQAANNALLLDTI (C-terminal amide) [SEQ ID NO 240]
29 | 315 | 95 | ZGPPISIDLPYYLLRKMIEIEKQEKEKQQAANNALLLDTI (C-terminal amide) [SEQ ID NO 226]
30 | 48.1 | 81 | ZGPPISIDLPFFLLRKMIEIEKQEKEKQQAANNRLLLDTI (C-terminal amide) [SEQ ID NO 223]
31 | 94 | 100 | ZGPPISIDLPFYLLRKMIEIEKQEKEKQQAANNALLLATI (C-terminal amide) [SEQ ID NO 231]
32 | 298 | 100 | ZGPPISIDLPFHLLRKMIEIEKQEKEKQQAANNALLLATI (C-terminal amide) [SEQ ID NO 229]
33 | 1000 | 27 | ZGPPISIDLPQYLLRKMIEIEKQEKEKQQAANNALLLDTI (C-terminal amide) [SEQ ID NO 224]
34 | 806 | 70 | ZGPPISIDLPLELLRKMIEIEKQEKEKQQAANNALLLDTI (C-terminal amide) [SEQ ID NO 235]
35 | 276 | 100 | ZGPPISIDLPFHLLRKMIEIEKQEKEKQQAANNALLLDTI (C-terminal amide) [SEQ ID NO 228]
36 | 1000 | 15 | ZGPPISIDLPIYLLRKMIEIEKQEKEKQQAANNALLLDTI (C-terminal amide) [SEQ ID NO 236]
37 | 445 | 100 | ZGPPISIDLPHQLLRKMIEIEKQEKEKQQAANNRLLLDTI (C-terminal amide) [SEQ ID NO 212]
38 | 219 | 100 | ZGPPISIDLPFYLLRKMIEIEKQEKEKQQAANNALLLDTI (C-terminal amide) [SEQ ID NO 230]

Molecular target: T1, CRF2R
Test: cell-based or functional assay

Row | CRF2R EC50 [nM] | CRF2R Emax % [%] | Binder
39 | 8.7 | 96 | DNPSLSIDVPFFLLRTLLELEKTQSQRERAEQNARIFARV-NH2 [SEQ ID NO 386]
40 | 16.7 | 100 | ZGPPISIDLPLHLLRKMIEIEKQEKEKQQATTNARLLDTV (C-terminal amide) [SEQ ID NO 238]
41 | 16.8 | 100 | ZGPPISIDLPLYLLRKMIEIEKQEKEKQQATTNARLLDRV (C-terminal amide) [SEQ ID NO 243]
42 | 13.2 | 100 | ZGPPISIDLPLHLLRKMIEIEKQEKEKQQATTNARLLDRV (C-terminal amide) [SEQ ID NO 239]
43 | 29 | 94 | ZGPPISIDLPLYLLRKMIEIEKQEKEKQQATTNARLLDTV (C-terminal amide) [SEQ ID NO 242]
44 | 7.1 | 97.3 | DNPSLSIDVPLLLLRTLLELEKTQSQRERAEQNARIFARV-NH2 [SEQ ID NO 384]
45 | 22.3 | 99 | ZGPPISIDLPQWLLRKMIEIEKQEKEKQQAANNRLLLDTI (C-terminal amide) [SEQ ID NO 213]
46 | 7.8 | 98 | ZGPPISIDLPHFLLRKMIEIEKQEKEKQQAANNRLLLDTI (C-terminal amide) [SEQ ID NO 219]
47 | 33.6 | 95 | ZGPPISIDLPQYLLRKMIEIEKQEKEKQQAANNALLLATI (C-terminal amide) [SEQ ID NO 227]
48 | 8.5 | 100 | ZGPPISIDLPQFLLRKMIEIEKQEKEKQQAANNRLLLDTI (C-terminal amide) [SEQ ID NO 221]
49 | 4 | 100 | ZGPPISIDLPYWLLRKMIEIEKQEKEKQQAANNRLLLDTI (C-terminal amide) [SEQ ID NO 215]
50 | 9.4 | 100 | ZGPPISIDLPAFLLRKMIEIEKQEKEKQQAANNRLLLDTI (C-terminal amide) [SEQ ID NO 222]
51 | 9.9 | 90 | ZGPPISIDLPWWLLRKMIEIEKQEKEKQQAANNRLLLDTI (C-terminal amide) [SEQ ID NO 216]
52 | 12.6 | 99 | ZGPPISIDLPLHLLRKMIEIEKQEKEKQQAANNALLLATI (C-terminal amide) [SEQ ID NO 241]
53 | 20.6 | 100 | ZGPPISIDLPLELLRKMIEIEKQEKEKQQAANNALLLATI (C-terminal amide) [SEQ ID NO 234]
54 | 4.8 | 89 | ZGPPISIDLPYYLLRKMIEIEKQEKEKQQAANNALLLATI (C-terminal amide) [SEQ ID NO 225]
55 | 22.2 | 93 | ZGPPISIDLPIYLLRKMIEIEKQEKEKQQAANNALLLATI (C-terminal amide) [SEQ ID NO 237]
56 | 4.1 | 98 | ZGPPISIDLPYFLLRKMIEIEKQEKEKQQAANNRLLLDTI (C-terminal amide) [SEQ ID NO 220]
57 | 4.8 | 96 | ZGPPISIDLPLWLLRKMIEIEKQEKEKQQAANNRLLLDTI (C-terminal amide) [SEQ ID NO 218]

Row | CRF2R EC50 [nM] | CRF2R Emax % [%] | Binder
58 | 46.1 | 95 | ZGPPISIDLPTYLLRKMIEIEKQEKEKQQAANNALLLATI (C-terminal amide) [SEQ ID NO 233]
59 | 17.9 | 100 | DNPSLSIDVPLYLLRTLLELEKTQSQRERAEQNARIFARV-NH2 [SEQ ID NO 387]
60 | 10.2 | 100 | DNPSLSIDVPLFLLRTLLELEKTQSQRERAEQNARIFARV-NH2 [SEQ ID NO 385]
61 | 74.3 | 60 | IVLSLDVVIGLLQILLEQARARAAREQATTNARILARV-NH2 [SEQ ID NO 214]
62 | 39.5 | 100 | ZGPPISIDVPFQLLRKVIEIEKQEKEKQQAANNARLLDTI (C-terminal amide) [SEQ ID NO 382]
63 | 45.3 | 100 | ZGPPISIDLPTYLLRKMIEIEKQEKEKQQAANNALLLDTI (C-terminal amide) [SEQ ID NO 232]
64 | 9.31 | 96 | ZGPPISIDVPFQLLRKVIEIEKQEKEKQQAANNARLLARI (C-terminal amide) [SEQ ID NO 383]
65 | 4.7 | 95 | ZGPPISIDLPFWLLRKMIEIEKQEKEKQQAANNRLLLDTI (C-terminal amide) [SEQ ID NO 217]
66 | 22 | 100 | ZGPPISIDLPLHLLRKMIEIEKQEKEKQQAANNALLLDTI (C-terminal amide) [SEQ ID NO 240]
67 | 7.6 | 100 | ZGPPISIDLPYYLLRKMIEIEKQEKEKQQAANNALLLDTI (C-terminal amide) [SEQ ID NO 226]
68 | 3 | 92 | ZGPPISIDLPFFLLRKMIEIEKQEKEKQQAANNRLLLDTI (C-terminal amide) [SEQ ID NO 223]
69 | 5.9 | 100 | ZGPPISIDLPFYLLRKMIEIEKQEKEKQQAANNALLLATI (C-terminal amide) [SEQ ID NO 231]
70 | 10.3 | 100 | ZGPPISIDLPFHLLRKMIEIEKQEKEKQQAANNALLLATI (C-terminal amide) [SEQ ID NO 229]
71 | 26.9 | 100 | ZGPPISIDLPQYLLRKMIEIEKQEKEKQQAANNALLLDTI (C-terminal amide) [SEQ ID NO 224]
72 | 25.7 | 100 | ZGPPISIDLPLELLRKMIEIEKQEKEKQQAANNALLLDTI (C-terminal amide) [SEQ ID NO 235]
73 | 7.1 | 100 | ZGPPISIDLPFHLLRKMIEIEKQEKEKQQAANNALLLDTI (C-terminal amide) [SEQ ID NO 228]
74 | 40.4 | 97 | ZGPPISIDLPIYLLRKMIEIEKQEKEKQQAANNALLLDTI (C-terminal amide) [SEQ ID NO 236]
75 | 21.3 | 100 | ZGPPISIDLPHQLLRKMIEIEKQEKEKQQAANNRLLLDTI (C-terminal amide) [SEQ ID NO 212]
76 | 8.1 | 100 | ZGPPISIDLPFYLLRKMIEIEKQEKEKQQAANNALLLDTI (C-terminal amide) [SEQ ID NO 230]
